# Measurements from IntAct's records for PubMed 15563508.
# B1: Carbonic anhydrase 4 (Homo sapiens), P22748 (parent)
# chain: MRMLLALLALSAARPSASAESHWCYEVQAESSNYPCLVPVKWGGNCQKDRQSPINIVTTKAKVDKKLGRFFFSGYDKKQTWTVQNNGHSVMMLLENKASISGGGLPAPYQAKQLHLHWSDLPYKGSEHSLDGEHFAMEMHIVHEKEKGTSRNVKEAQDPEDEIAVLAFLVEAGTQVNEGFQPLVEALSNIPKPEMSTTMAESSLLDLLPKEEKLRHYFRYLGSLTTPTCDEKVVWTVFREPIQLHREQILAFSQKLYYDKEQTVSMKDNVRPLQQLGQRTVIKSGAPGRPLPWALPALLGPMLACLLAGFLR
# partner: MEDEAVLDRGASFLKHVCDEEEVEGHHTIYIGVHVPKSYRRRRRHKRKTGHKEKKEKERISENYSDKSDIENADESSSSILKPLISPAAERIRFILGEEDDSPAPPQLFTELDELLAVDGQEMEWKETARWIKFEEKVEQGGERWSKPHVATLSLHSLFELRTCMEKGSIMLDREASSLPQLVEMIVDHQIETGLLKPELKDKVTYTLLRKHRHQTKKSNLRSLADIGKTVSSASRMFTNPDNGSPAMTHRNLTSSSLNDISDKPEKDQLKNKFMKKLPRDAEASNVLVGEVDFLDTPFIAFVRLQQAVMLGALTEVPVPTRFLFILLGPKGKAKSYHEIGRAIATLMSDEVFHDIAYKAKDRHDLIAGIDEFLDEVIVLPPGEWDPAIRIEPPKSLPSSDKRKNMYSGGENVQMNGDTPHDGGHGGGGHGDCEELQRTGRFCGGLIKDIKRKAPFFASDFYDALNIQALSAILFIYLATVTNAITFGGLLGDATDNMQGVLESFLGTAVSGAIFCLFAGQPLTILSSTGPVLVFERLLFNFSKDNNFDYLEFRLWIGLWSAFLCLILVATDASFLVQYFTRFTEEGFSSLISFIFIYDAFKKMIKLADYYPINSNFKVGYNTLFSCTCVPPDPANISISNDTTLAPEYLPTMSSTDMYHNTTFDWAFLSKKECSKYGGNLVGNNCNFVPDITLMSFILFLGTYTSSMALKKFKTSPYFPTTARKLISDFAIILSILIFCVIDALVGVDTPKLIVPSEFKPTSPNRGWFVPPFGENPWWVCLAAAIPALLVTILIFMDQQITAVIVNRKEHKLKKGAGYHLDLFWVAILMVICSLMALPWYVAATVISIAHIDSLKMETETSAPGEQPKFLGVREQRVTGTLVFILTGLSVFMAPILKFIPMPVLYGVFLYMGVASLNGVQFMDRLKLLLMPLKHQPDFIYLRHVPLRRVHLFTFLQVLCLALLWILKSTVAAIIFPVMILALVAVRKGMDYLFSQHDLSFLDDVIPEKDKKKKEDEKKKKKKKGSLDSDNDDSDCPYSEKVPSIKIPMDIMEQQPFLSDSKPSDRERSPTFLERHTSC
# Variants of: B1
# Conditions: with s4a4_human SLC4A4, Q9Y6R1
row,Variant,effect of a mutation on the interaction
1,R14W,decreasing interaction
